The assay addresses HA-APP (full-length, APP695 spliced isoform) (UniProt P05067). The assay is described as follows: ELISA. On the technique in general: In an ELISA, binding on a coated surface is turned into a signal by an enzyme label.

As to “MDGA1 MAM-Fc (recombinant MDGA1 MAM domain fused to Fc) (from UniProt Q8NFP4 751-918) (Fc fusion)”, the Kd is 41.3 nM.

The record behind these values is paper PMC8795569.
